The test concerns the target Ramos (human) (UniProt P11836). Kind of test: FACS binding; Ramos cells.

Chain of Ramos (human) (P11836 whole entry): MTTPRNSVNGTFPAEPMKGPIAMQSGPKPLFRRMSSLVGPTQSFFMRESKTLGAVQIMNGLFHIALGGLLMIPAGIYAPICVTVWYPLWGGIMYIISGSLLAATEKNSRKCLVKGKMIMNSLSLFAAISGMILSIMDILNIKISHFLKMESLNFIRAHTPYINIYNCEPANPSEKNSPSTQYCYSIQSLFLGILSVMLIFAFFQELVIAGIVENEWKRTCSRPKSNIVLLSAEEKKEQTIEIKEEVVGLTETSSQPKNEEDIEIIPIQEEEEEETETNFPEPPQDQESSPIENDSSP

Rituxan-GlcNAc gave an EC50 of 1.54 µg/mL. In the case of Rituxan-SCT, the EC50 turned out to be 1.2 µg/mL.

The EC50 is the concentration giving half of the maximal effect. Read a low EC50 as greater potency.

The values above are taken from patent publication US20160280794A1.
